Test system: Escherichia coli TOP10
Assay: shrunken log2 fold change of peptide-encoding DNA abundance (4.5 h post-induction vs induction); higher = less antimicrobial activity (less host growth inhibition)
Details: time post-induction: 4.5 h; library: site-saturation at positions 5, 18, 19, 20
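Also: peptides expressed intracellularly from a pBAD plasmid library in pooled LB shake-flask culture, induced with 0.3% L-arabinose, DNA abundance read by NGS, three biological replicates, DESeq2 with apeglm shrinkage.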

Row | Sequence | shrunken log2 fold change
1 | RRIRRRPPRLPRPRPRPHRVPRP | -0.0232
2 | RRIRFRPPRLPRPRPRPYKGPRP | -0.631
3 | RRIRCRPPRLPRPRPRPWKAPRP | 0.0231
4 | RRIRSRPPRLPRPRPRPVYIPRP | -0.124
5 | RRIRWRPPRLPRPRPRPPRCPRP | 0.483
6 | RRIRRRPPRLPRPRPRPTIWPRP | 0.251
7 | RRIRWRPPRLPRPRPRPSLGPRP | 0.338
8 | RRIRMRPPRLPRPRPRPTYNPRP | -0.361
9 | RRIRFRPPRLPRPRPRPQIRPRP | -0.231
10 | RRIRRRPPRLPRPRPRPLCVPRP | 0.537
11 | RRIRIRPPRLPRPRPRPMDPPRP | -0.347
12 | RRIRVRPPRLPRPRPRPWSTPRP | 0.00921
13 | RRIRLRPPRLPRPRPRPHWEPRP | 0.0215
14 | RRIRNRPPRLPRPRPRPRFIPRP | -0.533
15 | RRIRPRPPRLPRPRPRPYATPRP | -0.446
16 | RRIRIRPPRLPRPRPRPDNKPRP | -0.703
17 | RRIRWRPPRLPRPRPRPWHVPRP | -0.201
18 | RRIRHRPPRLPRPRPRPDNMPRP | 3.69
19 | RRIRGRPPRLPRPRPRPFHLPRP | -0.391
20 | RRIRQRPPRLPRPRPRPRPGPRP | 0.286
21 | RRIRERPPRLPRPRPRPQREPRP | 0.0255
22 | RRIRCRPPRLPRPRPRPHSGPRP | 0.00506
23 | RRIRIRPPRLPRPRPRPRMSPRP | -0.323
24 | RRIRFRPPRLPRPRPRPPICPRP | 0.172
25 | RRIRVRPPRLPRPRPRPMQEPRP | -0.0018

Row | Sequence | shrunken log2 fold change
26 | RRIRPRPPRLPRPRPRPQCLPRP | 0.0368
27 | RRIRNRPPRLPRPRPRPVSGPRP | 0.172
28 | RRIRQRPPRLPRPRPRPESKPRP | 0.0494
29 | RRIRYRPPRLPRPRPRPADAPRP | 0.0896
30 | RRIRMRPPRLPRPRPRPLGCPRP | 0.182
31 | RRIRNRPPRLPRPRPRPPEHPRP | 0.266
32 | RRIRWRPPRLPRPRPRPMTYPRP | -0.289
33 | RRIRNRPPRLPRPRPRPGHRPRP | 0.00909
34 | RRIRLRPPRLPRPRPRPINPPRP | 0.132
35 | RRIRDRPPRLPRPRPRPSLRPRP | 0.188
36 | RRIRFRPPRLPRPRPRPTAGPRP | 0.0761
37 | RRIRSRPPRLPRPRPRPTNWPRP | 0.0446
38 | RRIRRRPPRLPRPRPRPMQPPRP | 0.0874
39 | RRIRLRPPRLPRPRPRPSGYPRP | -0.152
40 | RRIRVRPPRLPRPRPRPQMFPRP | -0.0716
41 | RRIRYRPPRLPRPRPRPKGTPRP | -0.0217
42 | RRIRQRPPRLPRPRPRPKMKPRP | -0.08
43 | RRIRGRPPRLPRPRPRPRPDPRP | 0.94
44 | RRIRRRPPRLPRPRPRPLYWPRP | 0.0153
45 | RRIRHRPPRLPRPRPRPDWIPRP | -0.111
46 | RRIRMRPPRLPRPRPRPEPVPRP | 1.01
47 | RRIRARPPRLPRPRPRPWLPPRP | 0.197
48 | RRIRERPPRLPRPRPRPEYSPRP | -0.422
49 | RRIRCRPPRLPRPRPRPGGNPRP | -0.0575
50 | RRIRMRPPRLPRPRPRPMSGPRP | 0.858

Row | Sequence | shrunken log2 fold change
51 | RRIRSRPPRLPRPRPRPPIHPRP | -0.329
52 | RRIRHRPPRLPRPRPRPYHSPRP | -0.0215
53 | RRIRDRPPRLPRPRPRPDANPRP | 0.163
54 | RRIRRRPPRLPRPRPRPINHPRP | -0.273
55 | RRIRMRPPRLPRPRPRPTDFPRP | -0.0135
56 | RRIRRRPPRLPRPRPRPHDDPRP | 0.341
57 | RRIRLRPPRLPRPRPRPCREPRP | 0.251
58 | RRIRMRPPRLPRPRPRPVHIPRP | 0.00544
59 | RRIRVRPPRLPRPRPRPCNKPRP | -0.311
60 | RRIRTRPPRLPRPRPRPNSIPRP | -0.0867
61 | RRIRERPPRLPRPRPRPLHAPRP | -0.0579
62 | RRIRNRPPRLPRPRPRPRSDPRP | 0.0587
63 | RRIRLRPPRLPRPRPRPVNFPRP | -0.13
64 | RRIRQRPPRLPRPRPRPYLEPRP | -0.332
65 | RRIRARPPRLPRPRPRPIFIPRP | 0.127
66 | RRIRIRPPRLPRPRPRPMPRPRP | 0.0826
67 | RRIRWRPPRLPRPRPRPSAVPRP | 0.6
68 | RRIRWRPPRLPRPRPRPMAEPRP | 0.203
69 | RRIRERPPRLPRPRPRPLCQPRP | 0.00385
70 | RRIRGRPPRLPRPRPRPVMSPRP | 0.401
71 | RRIRHRPPRLPRPRPRPNKEPRP | 0.000399
72 | RRIRIRPPRLPRPRPRPMSWPRP | -0.402
73 | RRIRRRPPRLPRPRPRPDGTPRP | 0.0222
74 | RRIRARPPRLPRPRPRPTSMPRP | 0.127
75 | RRIRKRPPRLPRPRPRPFQYPRP | -0.284

Reference: the supplement of paper PMC9112550, “Optimization of the antimicrobial peptide Bac7 by deep mutational scanning” (BMC Biology, 2022)
